In a protein production outcome set (Wang et al. 2014):

Test: label from the status in PepcDB records
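Note: failed if final PepcDB status was selected cloned or expressed and not failed if soluble or beyond.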

Row | Sequence | protein production
1 | MAASTSSSSSSSSSSLSSPSPCTWRYMTFTSFHGPDVRNTFLSHLRKQFNTNGITMFDDQRMERSQTLAPTLTQAIRESKIYIVLLSKNYASSSWCLDELLEILNCKEKRGQRVMTIFYGVNPSDVRKQTGEFGIAFNETCARKTEEERRKWSHALTCVGNITGVHVQDRDDEANMIEKIATDVSEKLNATESKDFDEMVGIKAHLTKIESLLSLDYDKVKIVGISGPAGIGKSTIARALHNLLSSSFHLSCFMENLISQSNPHSSLEYSSKLSLQEQLLSQVLNEKDIRIRHLGAIQERLHDQRVLIILDDVTSLEQLEVLANIKWYGPGSRIIVITKKKDILVQHGICDIYHVGFPTDADALKIFCLSAYRQTSPPDGSMKIHECEMFIKICGNLPLHLHVLGSALRGRSYGRVQSLCNLVSLADFV | failed
2 | MTTPGKLNKARVPPYKTAGLGLVLVFALVVALVYLQFRGEFTPKTQLTMLSARAGLVMDPGSKVTYNGVEIGRVDTISEVTRDGESAAKFILDVDPRYIHLIPANVNADIKATTVFGGKYVSLTTPKNPTKRRITPKDVIDVRSVTTEINTLFQTLTSIAEKVDPVKLNLTLSAAAEALTGLGDKFGESIVNANTVLDDLNSRMPQSRHDIQQLAALGDVYADAAPDLFDFLDSSVTTARTINAQQAELDSALLAAAGFGNTTADVFDRGGPYLQRGVADLVPTATLLDTYSPELFCTIRNFYDADPLAKAAAGGGNGYSLRTNSEILSGIGISLLSPLALATNGAAIGIGLVAGLIASPLAVAANLAGALPGIVGGAPNPYTYPENLPRVNARGGPGGAPGCWQPITRDLWPAPYLVMDTGASLAPYNHMEVGSPYAVEYVWGRQVGDNTINP | failed
3 | MQDFDFSFNPKACEGCGAKCCVGESGYIFLNIQEMQQISAFLKLELEEFSQKYVKKVGYKFSLLEKDAKELGLACVFLDLETKKCQIYSVRPKQCQTFPFWEGVKTFSKEQKEAFCQSCPGITQKTKETKVR | failed
4 | MTIHDNTLFSADERSRFLSSYASLIRTLAPDRQLVKKVRSLLSRFTELGCFDRDKNGMHGLLRNMEVARIASCEIGLGIEAIGALLFYRPAMKGLTRPEEIAELMGEDVARLIDLLLKTSEIYMRNTAINTANFEHFLLSIAEDIRVVLLIIADRSYLLRQAKDMVCAEERTALAAEVSYLYAPLAHRLGLYAIKSEMEDLCLKYTDRQTFDFIKRKLGETKRSRDAYIEAFIAPLRRRLDEALPNIPYEMKGRTKSINSIRNKLRQQGIEFESIYDLFAIRIILDVPVKDEKAACWHVYSIITDMYQPNPQRMKDWISIPKSNGYESLHVTVMGPQNRWVEVQIRSRRMDEVAERGLAAHWKYKGIKSESGLDEFLTSVRETLEARDHSSDDSAETVKNFKMNLFTDEIYAFTPTGELIKLPQGASVLDFAFAIHSRIGCQAVGANVNGKNVPLKHKLENGDSVSIITSAQQTPKKDWLSYVVSSKARNKIKQQLRLQMESSIGVVKELLNRRLKNRKLPFEEAVFTRVVRRKGFKHLTDFYMEIAADRLDVQEVLELYSHELEEEQRRDAGSGAARRSADTFVAHPPKEEEIVKGGKSDVLVIDNNMTGVEYSFGKCCNPIYGDSVFGFVSNSGIKIHRTDCPNAPDMFSRYGYRIIEARWSGKGSTGYEATLHVIGQDNLAIVTNITSVINKEPGVSLRAYSINSKDNLFEGVFTVEVPDTSTLSILLRKIRATHGVKSAERH | failed
5 | MVHTPLNFKFSEKREEWNLRFCRNVGVSIVELVTADASSAYVRGLMAVNGSKVYSILPFISIDAEKAKKAKFPEDRMSGVRGKVIPSVLPEIKGETILDIGCGFGTLTMELAKNNPESQVYGIDLHDSLTGQAEMNAEVLGLPNVEFRTGSAYALPFEKDSIDAVTCFLMLHHLEDIKFALFEIKRVLKKGGSLTAVEPLAHQHHHGPQLSEAEWKELFEEAGFGTETENMEGAVVLRAVKRELEHHHHHH | failed
6 | LDQILRATVEEVRAFLGTDRVKVYRFDPEGHGTVVAEARGGERLPSLLGLTFPAGDIPEEARRLFRLAQVRVIVDVEAQSRSISQPESWGLSARVPLGEPLQRPVDPCHVHYLKSMGVASSLVVPLMHHQELWGLLVSHHAEPRPYSQEELQVVQLLADQVSIAIAQAELSL | not failed
7 | MLEINKIHQMNCFDFLDQVENKSVQLAVIDPPYNLSKADWDSFDSHNEFLPFTYRWIDKVLDKLDKDGSLYIFNTPFNCAFICQYLVSKGMIFQNWITWDKRDGMGSAKRGFSTGQETILFFSKSKNHTFNYDEVRVPYESTDRIKHASEKGILKNGKRWFPNPNGRLCGEVWHFSSQRHKEKVNGKTVKLTHITPKPRDLIERIIRASSNPNDLVLDCFMGSGTTAIVAKKLGRNFIGCDMNAEYVNQANFVLNQLEIN | not failed
8 | MQLEVILPLVAYLVVVFGISVYAMRKRSTGTFLNEYFLGSRSMGGIVLAMTLTATYISASSFIGGPGAAYKYGLGWVLLAMIQLPAVWLSLGILGKKFAILARRYNAVTLNDMLFARYQSRLLVWLASLSLLVAFVGAMTVQFIGGARLLETAAGIPYETGLLIFGISIALYTAFGGFRASVLNDTMQGLVMLIGTVVLLIGVVHAAGGLSNAVQTLQTIDPQLVTPQGADDILSPAFMTSFWVLVCFGVIGLPHTAVRCISYKDSKAVHRGIIIGTIVVAILMFGMHLAGALGRAVIPDLTVPDLVIPTLMVKVLPPFAAGIFLAAPMAAIMSTINAQLLQSSATIIKDLYLNIRPDQMQNETRLKRMSAVITLVLGALLLLAAWKPPEMIIWLNLLAFGGLEAVFLWPLVLGLYWERANAKGALSAMIVGGVLYAVLATLNIQYLGFHPIVPSLLLSLLAFLVGNRFGTSVPQATVLTTDK | failed
9 | MATLKVSDSVPAPSDDAEQLRTAFEGWGTNEDLIISILAHRSAEQRKVIRQAYHETYGEDLLKTLDKELSNDFERAILLWTLEPGERDALLANEATKRWTSSNQVLMEVACTRTSTQLLHARQAYHARYKKSLEEDVAHHTTGDFRKLLVSLVTSYRYEGDEVNMTLAKQEAKLVHEKIKDKHYNDEDVIRILSTRSKAQINATFNRYQDDHGEEILKSLEEGDDDDKFLALLRSTIQCLTRPELYFVDVLRSAINKTGTDEGALTRIVTTRAEIDLKVIGEEYQRRNSIPLEKAITKDTRGDYEKMLVALLGEDDA | not failed
10 | MAFTESDVYNNTAFFEQYMKRRYRENSPNESIEKPVFFQLIGHVQGKQILDLGCGDAKFGAELLEKGCYSYTGIEGSELMYEKAKKQLENKNGSVHFLNLKDYTYPSSTFDLVTSRLALHYIEHLDTIFQNVFQTLKTNGTFTFSVQHPVITSSFESLQTSGKRTIWLVDDYFKLGKRVEPWIDQEVIKYHRTTEEYFTLLQQAGFTITSLKEATPNPTYFQDEEEYKRRLRIPLFLLFSCTK | failed
11 | MATAASNHYSLLTSSASIVHAEPPGGMQQGAGGYREAQSLVQGDYGALQSNGHPLSHAHQWITALSHGGGGGGGGGGGGGGGGGGGGGDGSPWSTSPLGQPDIKPSVVVQQGGRGDELHGPGALQQQHQQQQQQQQQQQQQQQQQQQQQRPPHLVHHAANHHPGPGAWRSAAAAAHLPPSMGASNGGLLYSQPSFTVNGMLGAGGQSAGLHHHGLRDAHDEPHHADHHPHPHSHPHQQPPPPPPPQGPPGHPGAHHDPHSDEDTPTSDDLEQFAKQFKQRRIKLGFTQADVGLALGTLYGNVFSQTTICRFEALQLSFKNMCKLKPLLNKWLEEADSSSGSPTSIDKIAAQGRKRKKRTSIEVSVKGALESHFLKCPKPSAQEITSLADSLQLEKEVVRVWFCNRRQKEKRMTPPGGTLPGAEDVYGGSRDTPPHHGVQTPVQ | failed
12 | MKEFRKILEDKAFFFTTLYILISFLVFKIFPDVFAVIVLMVFFTLLLDPVIRFLEKLKFGKYFSRVAALLLFFFVMVYSLYMIIPPVFNEFGSFIEFMTKVFESKIWKDYIKSPELMPVFDKIMNFLEPKLTDFLNYVFSLVTTNFVSVTTIIVFTLFGLGYTVFYIREIASFFVLIYPKSVRAEAREFFRDVYASMGRYIRVIFINAVIIGLSYWIVFEAFNLKYSAIISLWAFVTNFIPIVGVVLEYIPVLLFSLTLGVKGVLLIALFAILIHAVAFVVFIQLMKGLEKLNPVYIILSILFFGKLFGLFGSFVGVPLALFFKVFWRKFLRPLFEAG | failed
13 | MSLTTRHTIGARLLLAFAFSTSLLTIVSLVAWGTWSRLDYQVAELLNQSVPKYNTSYVLETRSSEIRRRIQLIVSATSKVTLNQQYQRLQEDFTAIHAALASLPQNEQQAALQQGYTELRQTTQQINDLVSARIDVDRRLALFAEQLDWLHQDIGMELSPMRQELQWQLERGGAAQPQAQVMFQTINLIQTILDGETQAFLFVDELLKAKHLTQVDNGMRVLQYRLDELSRLSQPLFTQPSSIAYQQLLEEWRNVLRLEGDFQQSLRDRVVLTQKLESTSEQLQIQLDQQHTAIADLVANADALFVQVKGQTAQLVQEGNRVLLICFGLSIGLSLLLMYYFVHKRIVGRLHRLSESLDAIIHNDLSHPITVDGKDEIGALSEQLILYGKKVEEMERTNALSLINNTQASLITCDRYGQIESANPSAMATLRLESLAQPLTLWSCFAKHVQPKVGNULLLFDKKGNLIQKGAESLTLSLGNPEKPHYLRLYLRRYSQGLHDKIIVTITDVTDQEHANRLLEQRVKEKTQSLREKNRELQAEVEERQRAEAHLKKTQGELIQAAKMAVVGQTMTSLAHELNQPLSAMSAYLFSARLALEEAPQAQLATSLDHIENLTERMGKIVNSLRHFARKNSSDESLQPVRLNSVVEQALVLVQTKAKRQQIKLINTLPDDLMVMADALSLEQVLINLIVNGCDASTTFAQPWVKLIALGTEQGMQRIAVIDSGQGFEHEVVDKLFTPFTTTKEVGLGLGLSICQSLVEKMQGRIALASNLEKGAMVILELQQDEKYRTAD | failed
14 | MKMMDANEIISFIQKSEKKTPVKVYIKGDLKEVTFPETVQAFVNKKSGVLFGEWSEIKTILDENSKYIVDYVVENDRRNSAIPMLDLKGIKARIEPGAIIRDHVEIGDNAVIMMNATINIGAVIGEGSMIDMNAVLGGRATVGKNCHVGAGAVLAGVIEPPSAKPVIVEDDVVIGANVVVLEGVTVGKGAVVAAGAVVTEDVPPYTVVAGTPARVIKEIDEKTKAKTEIKQELRQLNPEK | failed
15 | MGHHHHHHSHMAAAIASSLIRQKRQAREREKSNACKCVSSPSKGKTSCDKNKLNVFSRVKLFGSKKRRRRRPEPQLKGIVTKLYSRQGYHLQLQADGTIDGTKDEDSTYTLFNLIPVGLRVVAIQGVQTKLYLAMNSEGYLYTSELFTPECKFKESVFENYYVTYSSMIYRQQQSGRGWYLGLNKEGEIMKGNHVKKNKPAAHFLPKPLKVAMYKEPSLHDLTEFSRSGSGTPTKSRSVSGVLNGGKSMSHNEST | not failed
16 | MSEEIREVKVLEKPWVEKYRPQRLDDIVGQEHIVKRLKHYVKTGSMPHLLFAGPPGVGKCLTGDTKVIANGQLFELGELVEKLSGGRFGPTPVKGLKVLGIDEDGKLREFEVQYVYKDRTDRLIKIKTQLGRELKVTPYHPLLVNRENGEIKWIKAEELKPGDKLAIPSFLPLITGENPLAEWLGYFMGSGYAYPSNSVITFTNEDPLIRQRFMELTEKLFPDAKIRERIHADGTPEVYVVSRKAWSLVNSISLTLIPREGWKGIRSFLRAYSDCNGRIESDAIVLSTDNNDMAQQIAYALASFGIIAKMDGEDVIISGSDNIERFLNEIGFSTQSKLKEAQKLIRKTNVRSDGLKINYELISYVKDRLRLNVNDKRNLSYRNAKELSWELMKEIYYRLEELERLKKVLSEPILIDWNEVAKKSDEVIEKAKIRAEKLLEYIKGERKPSFKEYIEIAKVLGINVERTIEAMKIFAKRYSSYAEIGRKLGTWNFNVKTILESDTVDNVEILEKIRKIELELIEEILSDGKLKEGIAYLIFLFQNELYWDEITEVKELRGDFIIYDLHVPGYHNFIAGNMPTVVHNTTAALALARELFGENWRHNFLELNASDERGINVIREKVKEFARTKPIGGASFKIIFLDEADALTQDAQQALRRTMEMFSSNVRFILSCNYSSKIIEPIQSRCAIFRFRPLRDEDIAKRLRYIAENEGLELTEEGLQAILYIAEGDMRRAINILQAAAALDKKITDENVFMVASRARPEDIREMMLLALKGNFLKAREKLREILLKQGLSGEDVLVQMHKEVFNLPIEEPKKVLLADKIGEYNFRLVEGANEIIQLEALLAQFTLIGKK | failed
